Measured values: patent US20250340597A1

Biological target: CH848.d0949.10.17 DT (HIV-1)
Experiment: not stated (FIG. 4)

## DH270 UCA Fab
  Kd: 60 nM
